Assay results reported in ChEMBL document CHEMBL1138116, “Synthesis and reactivity with beta-lactamases of a monobactam bearing a retro-amide side chain” (Bioorg Med Chem Lett, 2006).

Key:
[1] = substrate: O=C(Cc1ccccc1)N[C@H]1CN(S(=O)(=O)O)C1=O; assay: (§1) Binding affinity to class C beta lactamase of Enterobacter cloacae P99
[2] = substrate: O=C(NCc1ccccc1)C1CN(S(=O)(=O)O)C1=O; assay: as §1
[3] = substrate: O=C(Cc1ccccc1)N[C@H]1CN(S(=O)(=O)O)C1=O; assay: (§2) Binding affinity to TEM class A beta lactamase from the TEM2 plasmid; details: Escherichia coli
[4] = substrate: O=C(NCc1ccccc1)C1CN(S(=O)(=O)O)C1=O; assay: as §2; details: Escherichia coli
[5] = substrate: O=C(Cc1ccccc1)N[C@H]1CN(S(=O)(=O)O)C1=O; assay: (§3) Binding affinity to class D beta lactamase OXA1 of Escherichia coli
[6] = substrate: O=C(NCc1ccccc1)C1CN(S(=O)(=O)O)C1=O; assay: as §3
[7] = substrate: O=C(Cc1ccccc1)N[C@H]1CN(S(=O)(=O)O)C1=O; assay: (§4) Binding affinity to class A beta lactamase of Staphylococcus aureus PC1
[8] = substrate: O=C(NCc1ccccc1)C1CN(S(=O)(=O)O)C1=O; assay: as §4

B1: Beta-lactamase class C (Enterobacter cloacae), Q59401 (protein)
chain: MMKKSLCCALLLGISCSALATPVSEKQLAEVVANTVTPLMKAQSVPGMAVAVIYQGKPHYYTFGKADIAANKPVTPQTLFELGSISKTFTGVLGGDAIARGEISLDDPVTRYWPQLTGKQWQGIRMLDLATYTAGGLPLQVPDEVTDNASLLRFYQNWQPQWKPGTTRLYANASIGLFGALAVKPSGMPYEQAMTTRVLKPLKLDHTWINVPKAEEAHYAWGYRDGKAVRAVRVSPGMLDAQAYGVKTNVQDMANWVMANMAPENVADASLKQGIALAQSRYWRIGSMYQGLGWEMLNWPVEANTVVEGSDSKVALAPLPVAEVNPPAPPVKASWVHKTGSTGGFGSYVAFIPEKQIGIVMLANTSYPNPARVEAAYHILEALQ
Protein B1 has a Km [1] of 1000 µM and a Km [2] of 75 µM.

B2: Beta-lactamase TEM (Escherichia coli), P62593 (protein)
chain: MSIQHFRVALIPFFAAFCLPVFAHPETLVKVKDAEDQLGARVGYIELDLNSGKILESFRPEERFPMMSTFKVLLCGAVLSRVDAGQEQLGRRIHYSQNDLVEYSPVTEKHLTDGMTVRELCSAAITMSDNTAANLLLTTIGGPKELTAFLHNMGDHVTRLDRWEPELNEAIPNDERDTTMPAAMATTLRKLLTGELLTLASRQQLIDWMEADKVAGPLLRSALPAGWFIADKSGAGERGSRGIIAALGPDGKPSRIVVIYTTGSQATMDERNRQIAEIGASLIKHW
Work on B2 yielded a Km [3] of 6800 µM and a Km [4] of 2500 µM.

B3: Beta-lactamase OXA-1 (Escherichia coli), P13661 (protein)
chain: MKNTIHINFAIFLIIANIIYSSASASTDISTVASPLFEGTEGCFLLYDASTNAEIAQFNKAKCATQMAPDSTFKIALSLMAFDAEIIDQKTIFKWDKTPKGMEIWNSNHTPKTWMQFSVVWVSQEITQKIGLNKIKNYLKDFDYGNQDFSGDKERNNGLTEAWLESSLKISPEEQIQFLRKIINHNLPVKNSAIENTIENMYLQDLDNSTKLYGKTGAGFTANRTLQNGWFEGFIISKSGHKYVFVSALTGNLGSNLTSSIKAKKNAITILNTLNL
With B3 the Km [5] was 29 µM and the Km [6] was 2300 µM.

B4: Beta-lactamase (Staphylococcus aureus), P00807 (protein)
chain: MKKLIFLIVIALVLSACNSNSSHAKELNDLEKKYNAHIGVYALDTKSGKEVKFNSDKRFAYASTSKAINSAILLEQVPYNKLNKKVHINKDDIVAYSPILEKYVGKDITLKALIEASMTYSDNTANNKIIKEIGGIKKVKQRLKELGDKVTNPVRYEIELNYYSPKSKKDTSTPAAFGKTLNKLIANGKLSKENKKFLLDLMLNNKSGDTLIKDGVPKDYKVADKSGQAITYASRNDVAFVYPKGQSEPIVLVIFTNKDNKSDKPNDKLISETAKSVMKEF
Work on B4 yielded a Km [7] of 70 µM and a Km [8] of 300 µM.
